Test results taken from PMC5970976.

Biological target: CHIKV virus-like particles (VLPs, strain 37997) (chikungunya virus (strain 37997))
Assay: SPR

Sequence of CHIKV virus-like particles (VLPs, strain 37997) (chikungunya virus (strain 37997)) (Q5XXP3 326-748 limits assumed, chain 1 of 2): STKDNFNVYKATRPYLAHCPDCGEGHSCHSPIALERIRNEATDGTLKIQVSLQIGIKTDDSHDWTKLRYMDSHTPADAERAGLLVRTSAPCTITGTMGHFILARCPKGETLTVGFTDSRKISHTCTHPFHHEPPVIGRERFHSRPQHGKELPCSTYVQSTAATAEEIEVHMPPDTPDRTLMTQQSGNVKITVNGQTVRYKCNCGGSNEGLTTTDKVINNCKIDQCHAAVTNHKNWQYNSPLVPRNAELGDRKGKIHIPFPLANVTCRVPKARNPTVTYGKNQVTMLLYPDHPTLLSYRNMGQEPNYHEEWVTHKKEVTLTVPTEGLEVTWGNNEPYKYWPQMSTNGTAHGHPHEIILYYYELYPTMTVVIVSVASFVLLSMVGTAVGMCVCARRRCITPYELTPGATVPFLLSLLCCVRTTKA
Sequence of CHIKV virus-like particles (VLPs, strain 37997) (chikungunya virus (strain 37997)) (Q5XXP3 810-1248 limits assumed, chain 2 of 2): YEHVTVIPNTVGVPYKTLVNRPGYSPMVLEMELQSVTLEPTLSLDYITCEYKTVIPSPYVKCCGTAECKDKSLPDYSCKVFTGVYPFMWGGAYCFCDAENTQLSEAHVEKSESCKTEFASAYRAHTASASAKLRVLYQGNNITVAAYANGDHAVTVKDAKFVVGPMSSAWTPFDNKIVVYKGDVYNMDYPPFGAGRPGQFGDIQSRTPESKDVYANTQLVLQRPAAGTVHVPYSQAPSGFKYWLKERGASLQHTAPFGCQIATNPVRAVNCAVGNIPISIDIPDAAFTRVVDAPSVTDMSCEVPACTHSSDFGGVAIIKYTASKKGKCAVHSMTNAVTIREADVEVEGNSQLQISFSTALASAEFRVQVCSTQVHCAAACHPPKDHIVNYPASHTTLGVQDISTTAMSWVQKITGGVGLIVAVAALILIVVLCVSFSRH

“Mxra8 cleaved from the IgG backbone (recombinant Mxra8 from Mxra8-HRV-Fc) (from UniProt Q9DBV4 22-336) (domain or fragment)” gave a Kd of 200 nM.
